Experimental findings from the supplement of paper PMC9112550, “Optimization of the antimicrobial peptide Bac7 by deep mutational scanning” (BMC Biology, 2022) are described below.
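Also: peptides expressed intracellularly from a pBAD plasmid library in pooled LB shake-flask culture, induced with 0.3% L-arabinose, DNA abundance read by NGS, three biological replicates, DESeq2 with apeglm shrinkage.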

The data set deals with Escherichia coli TOP10. Kind of data set: shrunken log2 fold change of peptide-encoding DNA abundance (4.5 h post-induction vs induction); higher = less antimicrobial activity (less host growth inhibition). The conditions noted are these: time post-induction: 4.5 h; library: site-saturation at positions 5, 18, 19, 20.
With RRIRYRPPRLPRPRPRPRRVPRP, the “shrunken log2 fold change” value is 0.00201.

Take RRIRNRPPRLPRPRPRPRDPPRP: the “shrunken log2 fold change” value stood at 0.457.

As to RRIRDRPPRLPRPRPRPVSWPRP, the “shrunken log2 fold change” value worked out at 1.13.

For RRIRCRPPRLPRPRPRPPELPRP, the “shrunken log2 fold change” value was 0.643.

In the case of RRIRKRPPRLPRPRPRPWSYPRP, the “shrunken log2 fold change” value was -0.528.

Consider RRIRQRPPRLPRPRPRPSKFPRP, for which the “shrunken log2 fold change” value is -0.246.

In the case of RRIRKRPPRLPRPRPRPPSPPRP, the “shrunken log2 fold change” value turned out to be 0.588.

Consider RRIRYRPPRLPRPRPRPAMEPRP, for which the “shrunken log2 fold change” value is 0.0738.

As to RRIRERPPRLPRPRPRPPFNPRP, the “shrunken log2 fold change” value was -0.275.

Consider RRIRRRPPRLPRPRPRPYVIPRP, for which the “shrunken log2 fold change” value amounted to 0.0475.

Turning to RRIRSRPPRLPRPRPRPMLHPRP, the “shrunken log2 fold change” value is -0.424.

For RRIRDRPPRLPRPRPRPGSVPRP, the “shrunken log2 fold change” value came out at 0.113.

For the sequence RRIRCRPPRLPRPRPRPNIIPRP, the “shrunken log2 fold change” value worked out at 0.796.

In the case of RRIRVRPPRLPRPRPRPWPMPRP, the “shrunken log2 fold change” value turned out to be 0.0297.

Turning to RRIRQRPPRLPRPRPRPGLQPRP, the “shrunken log2 fold change” value was -0.0156.

As to RRIRRRPPRLPRPRPRPCAMPRP, the “shrunken log2 fold change” value was -0.0039.

On to RRIRGRPPRLPRPRPRPVNQPRP, for which the “shrunken log2 fold change” value is 0.35.

With RRIRARPPRLPRPRPRPEESPRP, the “shrunken log2 fold change” value was -0.024.

As to RRIRVRPPRLPRPRPRPHFNPRP, the “shrunken log2 fold change” value is -0.705.

Take RRIRARPPRLPRPRPRPFNKPRP: the “shrunken log2 fold change” value was -0.0214.

For the sequence RRIRIRPPRLPRPRPRPSHWPRP, the “shrunken log2 fold change” value is -0.0355.

On to RRIRARPPRLPRPRPRPLKYPRP, for which the “shrunken log2 fold change” value was -0.11.

For RRIRYRPPRLPRPRPRPFEFPRP, the “shrunken log2 fold change” value is -0.153.

For RRIRDRPPRLPRPRPRPRGDPRP, the “shrunken log2 fold change” value amounted to 0.231.

Turning to RRIRIRPPRLPRPRPRPCERPRP, the “shrunken log2 fold change” value was -0.0509.

Consider RRIRKRPPRLPRPRPRPWLTPRP, for which the “shrunken log2 fold change” value was 0.0883.

As for RRIRQRPPRLPRPRPRPPSEPRP, the “shrunken log2 fold change” value was -0.0213.

As for RRIRGRPPRLPRPRPRPSVNPRP, the “shrunken log2 fold change” value was 0.2.

Take RRIRLRPPRLPRPRPRPQKPPRP: the “shrunken log2 fold change” value is -0.272.

Regarding RRIRNRPPRLPRPRPRPGACPRP, the “shrunken log2 fold change” value is 0.0367.

For the sequence RRIRNRPPRLPRPRPRPGEDPRP, the “shrunken log2 fold change” value is -0.376.

As to RRIRRRPPRLPRPRPRPNRKPRP, the “shrunken log2 fold change” value amounted to 0.105.

Regarding RRIRRRPPRLPRPRPRPNERPRP, the “shrunken log2 fold change” value was -0.0664.

On to RRIRNRPPRLPRPRPRPTVAPRP, for which the “shrunken log2 fold change” value was 0.351.

In the case of RRIRYRPPRLPRPRPRPRAHPRP, the “shrunken log2 fold change” value is -0.121.

Regarding RRIRMRPPRLPRPRPRPFAVPRP, the “shrunken log2 fold change” value was -0.109.

With RRIRERPPRLPRPRPRPHIMPRP, the “shrunken log2 fold change” value is -0.652.

With RRIRFRPPRLPRPRPRPMWGPRP, the “shrunken log2 fold change” value is -0.136.

On to RRIRHRPPRLPRPRPRPALNPRP, for which the “shrunken log2 fold change” value was determined as 0.0444.

RRIRQRPPRLPRPRPRPVNIPRP: the “shrunken log2 fold change” value came out at 0.0209.

Turning to RRIRSRPPRLPRPRPRPFHWPRP, the “shrunken log2 fold change” value is -0.108.

Turning to RRIRQRPPRLPRPRPRPQIGPRP, the “shrunken log2 fold change” value is -0.0384.

As for RRIRRRPPRLPRPRPRPGDKPRP, the “shrunken log2 fold change” value was -0.292.

On to RRIRQRPPRLPRPRPRPAVGPRP, for which the “shrunken log2 fold change” value was found to be 0.0738.

Consider RRIRERPPRLPRPRPRPITKPRP, for which the “shrunken log2 fold change” value is -0.107.

Consider RRIRSRPPRLPRPRPRPEAHPRP, for which the “shrunken log2 fold change” value was found to be 0.16.

For the sequence RRIRWRPPRLPRPRPRPWSAPRP, the “shrunken log2 fold change” value stood at 0.228.

As to RRIRWRPPRLPRPRPRPPALPRP, the “shrunken log2 fold change” value amounted to 0.433.

With RRIRYRPPRLPRPRPRPRGHPRP, the “shrunken log2 fold change” value was -0.117.

Turning to RRIRNRPPRLPRPRPRPDNWPRP, the “shrunken log2 fold change” value is -0.532.

For the sequence RRIRCRPPRLPRPRPRPADIPRP, the “shrunken log2 fold change” value was -0.941.

In the case of RRIRERPPRLPRPRPRPPQSPRP, the “shrunken log2 fold change” value came to 0.0516.

For RRIRSRPPRLPRPRPRPCNPPRP, the “shrunken log2 fold change” value is -0.212.

As to RRIRLRPPRLPRPRPRPNTYPRP, the “shrunken log2 fold change” value is -0.522.

RRIRKRPPRLPRPRPRPHHKPRP: the “shrunken log2 fold change” value was -0.176.

Regarding RRIRFRPPRLPRPRPRPYIRPRP, the “shrunken log2 fold change” value was -0.755.

On to RRIRYRPPRLPRPRPRPFTKPRP, for which the “shrunken log2 fold change” value is -0.184.

For RRIRDRPPRLPRPRPRPLYKPRP, the “shrunken log2 fold change” value is 0.00521.

In the case of RRIRYRPPRLPRPRPRPTASPRP, the “shrunken log2 fold change” value is -0.389.

On to RRIRARPPRLPRPRPRPAFPPRP, for which the “shrunken log2 fold change” value worked out at 0.532.

In the case of RRIRNRPPRLPRPRPRPHAQPRP, the “shrunken log2 fold change” value was -0.835.

RRIRFRPPRLPRPRPRPTGEPRP: the “shrunken log2 fold change” value came out at 0.583.
